Assay results: patent publication US20190382500A1 (Novartis, published 2019)
Numbering of substitutions follows the chain as printed.

B1: PI61 BCMA CAR (other)
chain: QVQLQESGGGVVQPGRSLRLSCAASGFTFSSYGMHWVRQAPGKGLEWVAVISYDGSNKYYADSVKGRFTISRDNSKNTLYLQMNSLRAEDTAVYYCGGSGYALHDDYYGLDVWGQGTLVTVSSGGGGSGGGGSGGGGSQSALTQPASVSGSPGQSITISCTGTSSDVGGYNYVSWYQQHPGKAPKLMIYDVSNRPSGVSNRFSGSKSGNTASLTISGLQAEDEADYYCSSYTSSSTLYVFGSGTKVTVLTTTPAPRPPTPAPTIASQPLSLRPEACRPAAGGAVHTRGLDFACDIYIWAPLAGTCGVLLLSLVITLYCKRGRKKLLYIFKQPFMRPVQTTQEEDGCSCRFPEEEEGGCELRVKFSRSADAPAYQQGQNQLYNELNLGRREEYDVLDKRRGRDPEMGGKPRRKNPQEGLYNELQKDKMAEAYSEIGMKGERRRGKGHDGLYQGLSTATKDTYDALHMQALPPR
notes: Chimeric antigen receptor expressed on JNL cells or primary human T cells after lentiviral transduction; also called P161
B2: B61-02 BCMA CAR (other)
chain: QVQLVESGGGVVQPGRSLRLSCAASGFTFSSYGMHWVRQAPGKGLEWVAVISYKGSNKYYADSVKGRFTISRDNSKNTLYLQMNSLRAEDTAVYYCGGSGYALHDDYYGLDVWGQGTLVTVSSGGGGSGGGGSGGGGSGGGGSQSALTQPASVSGSPGQSITISCTGTSSDVGGYNYVSWYQQHPGKAPKLMIYEVSNRLRGVSNRFSGSKSGNTASLTISGLQAEDEADYYCSSYTSSSALYVFGSGTKVTVLTTTPAPRPPTPAPTIASQPLSLRPEACRPAAGGAVHTRGLDFACDIYIWAPLAGTCGVLLLSLVITLYCKRGRKKLLYIFKQPFMRPVQTTQEEDGCSCRFPEEEEGGCELRVKFSRSADAPAYQQGQNQLYNELNLGRREEYDVLDKRRGRDPEMGGKPRRKNPQEGLYNELQKDKMAEAYSEIGMKGERRRGKGHDGLYQGLSTATKDTYDALHMQALPPR
notes: Chimeric antigen receptor expressed on JNL cells or primary human T cells after lentiviral transduction
B3: B61-10 BCMA CAR (other)
chain: B2 chain with A241T
notes: as for B2
B4: Hy03 BCMA CAR (other)
chain: EVQLVESGGGLVQPGGSLRLSCAASGFTFSGFWMSWVRQAPGKGLEWVANIKQDGSEKYYVDSVRGRFTISRDNAKNSLYLQMNSLRAEDTAVYYCARALDYYGMDVWGQGTTVTVSSGGGGSGGGGSGGGGSGGGGSDIVMTQTPLSLPVTPGEPASISCRSSQSLLDSDDGNTYLDWYLQKPGQSPRLLIYTLSYRASGVPDRFSGSGSGTDFTLKISRVEAEDVGLYYCTQRLEFPSITFGQGTRLEIKTTTPAPRPPTPAPTIASQPLSLRPEACRPAAGGAVHTRGLDFACDIYIWAPLAGTCGVLLLSLVITLYCKRGRKKLLYIFKQPFMRPVQTTQEEDGCSCRFPEEEEGGCELRVKFSRSADAPAYQQGQNQLYNELNLGRREEYDVLDKRRGRDPEMGGKPRRKNPQEGLYNELQKDKMAEAYSEIGMKGERRRGKGHDGLYQGLSTATKDTYDALHMQALPPR
notes: as for B2
B5: Hy52 BCMA CAR (other)
chain: EVQLVESGGGLVKPGGSLRLSCAASGFTFSSFRMNWVRQAPGKGLEWVSSISSSSSYIYYADSVKGRFTISRDNAKNSLYLQMNSLRAEDTAVYYCARWLSYYGMDVWGQGTTVTVSSGGGGSGGGGSGGGGSGGGGSDIVMTQTPLSLPVTPGEPASISCRSSQSLLDSDDGNTYLDWYLQKPGQSPQLLIYTLSFRASGVPDRFSGSGSGTDFTLKIRRVEAEDVGVYYCMQRIGFPITFGQGTRLEIKTTTPAPRPPTPAPTIASQPLSLRPEACRPAAGGAVHTRGLDFACDIYIWAPLAGTCGVLLLSLVITLYCKRGRKKLLYIFKQPFMRPVQTTQEEDGCSCRFPEEEEGGCELRVKFSRSADAPAYQQGQNQLYNELNLGRREEYDVLDKRRGRDPEMGGKPRRKNPQEGLYNELQKDKMAEAYSEIGMKGERRRGKGHDGLYQGLSTATKDTYDALHMQALPPR
notes: as for B2

Molecular target: T1, human recombinant (r)BCMA_Fc-AF647 (human, UniProt Q02223 1-54, AF647 fluorescent label (site not stated))
T1 construct: Staining reagent for CAR detection by flow cytometry; not shown: Fc part
T1 sequence (looked up): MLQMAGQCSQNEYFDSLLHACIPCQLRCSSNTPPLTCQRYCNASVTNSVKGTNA
Assay: flow cytometry, rBCMA_Fc-AF647 staining of CAR-transduced primary human T cells
Description: The following 8 CARs were chosen for analysis of CAR expression, stability and efficacy in primary T cells: R1B6, R1F2, RIGS, PI61, B61-10, B61-02, Hy03, and Hy52. BCMA CAR T cells were generated by starting with blood from healthy apheresed donors whose T cells (CD4+ and CD8+ lymphocytes) were obtained by negative selection for CD3+ T cells. These cells were activated by the addition of CD3/CD28 beads (Dynabeads® Human T-Expander CD3/CD28, Thermo Fisher Scientific) at a ratio of 1:3 (T cell to bead) in T cell medium (RPMI1640, 10% heat-inactivated fetal calf serum (FCS), 2 mM L-glutamine, 1× Penicillin/Streptomycin, 100 μM non-essential amino acids, 1 mM Sodium Pyruvate, 10 mM Hepes, and 55 μM 2-mercaptoethanol). T cells were cultured at 0.5×10⁶ T cells in 1 mL medium per well of a 24-well plate at 37° C., 5% CO₂. After 24 hours, when T cells were blasting, T cells were transduced with BCMA CAR virus at a multiplicity of infection (MOI) of 5. T cells began to divide in a logarithmic growth pattern, which was monitored by measuring the cell counts per mL, and T cells were diluted in fresh medium every two days and de-beaded and harvested for further analyses at day 9. Aliquots of T cells were stained to measure CAR expression by flow cytometry at day 5 and 9 on a FACS Fortessa (BD). All BCMA CAR T cells were produced under research grade (i.e., not clinical grade) manufacturing conditions.
The BCMA-CAR surface expression and its stability was assessed by measuring CAR % and MFI (mean fluorescence intensity) at day 5 and day 9 using flow cytometry analyses of rBCMA_Fc-AF647 stained cells (FIG. 2 and Table 17).

Row | Binder | CAR % on T cells, Day 5 | CAR % on T cells, Day 9 | CAR MFI on T cells, Day 5 | CAR MFI on T cells, Day 9
1 | B1 | 47.4% | 42.3% | 24400 MFI | 2100 MFI
2 | B2 | 33.5% | 23.6% | 29100 MFI | 3470 MFI
3 | B3 | 41.1% | 30.3% | 27300 MFI | 3290 MFI
4 | B4 | 33.7% | 18.1% | 9460 MFI | 929 MFI
5 | B5 | 35.1% | 36.1% | 33700 MFI | 2860 MFI
